Starred links: 1 amine or outer side, 2 acyl side, 3 side chain; linkers in the order of their positions; H or OH if unused. Non-standard residues stand in square brackets, D forms with d. Groups on a side chain read outwards from the residue. No end group written: not given here. *: point of attachment. C18 diacid = O=C(O)CCCCCCCCCCCCCCCCC(=O)*; γGlu = O=C(O)[C@H](CCC(=O)[*:2])N[*:1]; Ac4c = NC1(C(=O)O)CCC1; AEEA = NCCOCCOCC(=O)O; Aib = CC(C)(N)C(=O)O
Assays:
human GLP-1 receptor [1] = target: T1, human GLP-1 receptor (human, UniProt P43220 24-463); experiment: cell-based or functional assay
human glucagon receptor [2] = target: T2, human glucagon receptor (human, UniProt P47871 26-477); experiment: cell-based or functional assay
T2 sequence (P47871 26-477): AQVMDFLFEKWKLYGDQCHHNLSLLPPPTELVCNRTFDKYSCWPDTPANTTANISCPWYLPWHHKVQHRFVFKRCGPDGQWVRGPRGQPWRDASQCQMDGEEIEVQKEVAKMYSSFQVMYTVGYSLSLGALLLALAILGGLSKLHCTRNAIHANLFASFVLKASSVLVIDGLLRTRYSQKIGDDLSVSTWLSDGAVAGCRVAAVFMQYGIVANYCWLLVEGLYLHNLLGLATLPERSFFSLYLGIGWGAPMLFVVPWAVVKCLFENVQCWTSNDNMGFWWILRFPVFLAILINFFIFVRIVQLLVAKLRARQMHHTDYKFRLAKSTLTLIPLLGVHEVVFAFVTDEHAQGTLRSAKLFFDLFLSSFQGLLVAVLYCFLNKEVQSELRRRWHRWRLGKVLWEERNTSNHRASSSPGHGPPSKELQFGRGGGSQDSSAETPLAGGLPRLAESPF

human glucagon receptor [3] = target: T2, human glucagon receptor; experiment: displacement of [125I]-glucagon from BHK membranes with human glucagon receptor, SPA, no serum albumin
human GLP-1 receptor [4] = target: T1, human GLP-1 receptor; experiment: displacement of [125I]-GLP-1-(7-36)NH2 from BHK membranes with human GLP-1R, SPA, no serum albumin

| Binder | GLP-1R EC50 (pM) [Assay (I)(a)], CRE luciferase reporter, BHK cells (human GLP-1 receptor [1]) [pM] | GlucagonR EC50 (pM), [Assay (I)(b)], CRE luciferase reporter, BHK cells (human glucagon receptor [2]) [pM] | IC50 (human glucagon receptor [3]) [nM] | IC50 (human GLP-1 receptor [4]) [nM] |
| --- | --- | --- | --- | --- |
| H[Aib]QGTFTSDYSKYLDLRRARDFVAWLIK([γGlu-γGlu-AEEA-AEEA-γGlu-C18 diacid])T-NH2 (N-terminus assumed; SMILES CC[C@H](C)[C@H](NC(=O)[C@H](CC(C)C)NC(=O)[C@H](Cc1c[nH]c2ccccc12)NC(=O)[C@H](C)NC(=O)[C@@H](NC(=O)[C@H](Cc1ccccc1)NC(=O)[C@H](CC(=O)O)NC(=O)[C@H](CCCNC(=N)N)NC(=O)[C@H](C)NC(=O)[C@H](CCCNC(=N)N)NC(=O)[C@H](CCCNC(=N)N)NC(=O)[C@H](CC(C)C)NC(=O)[C@H](CC(=O)O)NC(=O)[C@H](CC(C)C)NC(=O)[C@H](Cc1ccc(O)cc1)NC(=O)[C@H](CCCCN)NC(=O)[C@H](CO)NC(=O)[C@H](Cc1ccc(O)cc1)NC(=O)[C@H](CC(=O)O)NC(=O)[C@H](CO)NC(=O)[C@@H](NC(=O)[C@H](Cc1ccccc1)NC(=O)[C@@H](NC(=O)CNC(=O)[C@H](CCC(N)=O)NC(=O)C(C)(C)NC(=O)[C@@H](N)Cc1c[nH]cn1)[C@@H](C)O)[C@@H](C)O)C(C)C)C(=O)N[C@@H](CCCCNC(=O)CC[C@H](NC(=O)CC[C@H](NC(=O)COCCOCCNC(=O)COCCOCCNC(=O)CC[C@H](NC(=O)CCCCCCCCCCCCCCCCC(=O)O)C(=O)O)C(=O)O)C(=O)O)C(=O)N[C@H](C(N)=O)[C@@H](C)O, also called Chem. 33; Chem 33) | 7 | 8 | 6.9 | 2.3 |
| H[Aib]QGTFTSDLSKYLDARRARDFVQWLINK([γGlu-γGlu-AEEA-AEEA-γGlu-C18 diacid])-NH2 (N-terminus assumed; SMILES CC[C@H](C)[C@H](NC(=O)[C@H](CC(C)C)NC(=O)[C@H](Cc1c[nH]c2ccccc12)NC(=O)[C@H](CCC(N)=O)NC(=O)[C@@H](NC(=O)[C@H](Cc1ccccc1)NC(=O)[C@H](CC(=O)O)NC(=O)[C@H](CCCNC(=N)N)NC(=O)[C@H](C)NC(=O)[C@H](CCCNC(=N)N)NC(=O)[C@H](CCCNC(=N)N)NC(=O)[C@H](C)NC(=O)[C@H](CC(=O)O)NC(=O)[C@H](CC(C)C)NC(=O)[C@H](Cc1ccc(O)cc1)NC(=O)[C@H](CCCCN)NC(=O)[C@H](CO)NC(=O)[C@H](CC(C)C)NC(=O)[C@H](CC(=O)O)NC(=O)[C@H](CO)NC(=O)[C@@H](NC(=O)[C@H](Cc1ccccc1)NC(=O)[C@@H](NC(=O)CNC(=O)[C@H](CCC(N)=O)NC(=O)C(C)(C)NC(=O)[C@@H](N)Cc1c[nH]cn1)[C@@H](C)O)[C@@H](C)O)C(C)C)C(=O)N[C@@H](CC(N)=O)C(=O)N[C@@H](CCCCNC(=O)CC[C@H](NC(=O)CC[C@H](NC(=O)COCCOCCNC(=O)COCCOCCNC(=O)CC[C@H](NC(=O)CCCCCCCCCCCCCCCCC(=O)O)C(=O)O)C(=O)O)C(=O)O)C(N)=O, also called Chem. 20; Chem 20) | 4 | 70 | 13.6 | 0.1 |
| H[Aib]QGTFTSDLSKYLESRRAREFVQWLIK([γGlu-γGlu-AEEA-AEEA-γGlu-γGlu-C18 diacid])T-NH2 (N-terminus assumed; SMILES CC[C@H](C)[C@H](NC(=O)[C@H](CC(C)C)NC(=O)[C@H](Cc1c[nH]c2ccccc12)NC(=O)[C@H](CCC(N)=O)NC(=O)[C@@H](NC(=O)[C@H](Cc1ccccc1)NC(=O)[C@H](CCC(=O)O)NC(=O)[C@H](CCCNC(=N)N)NC(=O)[C@H](C)NC(=O)[C@H](CCCNC(=N)N)NC(=O)[C@H](CCCNC(=N)N)NC(=O)[C@H](CO)NC(=O)[C@H](CCC(=O)O)NC(=O)[C@H](CC(C)C)NC(=O)[C@H](Cc1ccc(O)cc1)NC(=O)[C@H](CCCCN)NC(=O)[C@H](CO)NC(=O)[C@H](CC(C)C)NC(=O)[C@H](CC(=O)O)NC(=O)[C@H](CO)NC(=O)[C@@H](NC(=O)[C@H](Cc1ccccc1)NC(=O)[C@@H](NC(=O)CNC(=O)[C@H](CCC(N)=O)NC(=O)C(C)(C)NC(=O)[C@@H](N)Cc1c[nH]cn1)[C@@H](C)O)[C@@H](C)O)C(C)C)C(=O)N[C@@H](CCCCNC(=O)CC[C@H](NC(=O)CC[C@H](NC(=O)COCCOCCNC(=O)COCCOCCNC(=O)CC[C@H](NC(=O)CC[C@H](NC(=O)CCCCCCCCCCCCCCCCC(=O)O)C(=O)O)C(=O)O)C(=O)O)C(=O)O)C(=O)N[C@H](C(N)=O)[C@@H](C)O, also called Chem. 25; Chem 25) | 2 | 52 | 11.2 | 0.1 |
| H[Aib]QGTFTSDYSKYLESRRAQDFVAWLIK([γGlu-γGlu-AEEA-AEEA-γGlu-C18 diacid])T-NH2 (N-terminus assumed; SMILES CC[C@H](C)[C@H](NC(=O)[C@H](CC(C)C)NC(=O)[C@H](Cc1c[nH]c2ccccc12)NC(=O)[C@H](C)NC(=O)[C@@H](NC(=O)[C@H](Cc1ccccc1)NC(=O)[C@H](CC(=O)O)NC(=O)[C@H](CCC(N)=O)NC(=O)[C@H](C)NC(=O)[C@H](CCCNC(=N)N)NC(=O)[C@H](CCCNC(=N)N)NC(=O)[C@H](CO)NC(=O)[C@H](CCC(=O)O)NC(=O)[C@H](CC(C)C)NC(=O)[C@H](Cc1ccc(O)cc1)NC(=O)[C@H](CCCCN)NC(=O)[C@H](CO)NC(=O)[C@H](Cc1ccc(O)cc1)NC(=O)[C@H](CC(=O)O)NC(=O)[C@H](CO)NC(=O)[C@@H](NC(=O)[C@H](Cc1ccccc1)NC(=O)[C@@H](NC(=O)CNC(=O)[C@H](CCC(N)=O)NC(=O)C(C)(C)NC(=O)[C@@H](N)Cc1c[nH]cn1)[C@@H](C)O)[C@@H](C)O)C(C)C)C(=O)N[C@@H](CCCCNC(=O)CC[C@H](NC(=O)CC[C@H](NC(=O)COCCOCCNC(=O)COCCOCCNC(=O)CC[C@H](NC(=O)CCCCCCCCCCCCCCCCC(=O)O)C(=O)O)C(=O)O)C(=O)O)C(=O)N[C@H](C(N)=O)[C@@H](C)O, also called Chem. 34; Chem 34) | 3 | 66 | 7 | 2.2 |
| H[Ac4c]QGTFTSDISKYLESRRAREFVQWLIK([γGlu-γGlu-AEEA-AEEA-γGlu-γGlu-C18 diacid])T-NH2 (N-terminus assumed; SMILES CC[C@H](C)[C@H](NC(=O)[C@H](CC(=O)O)NC(=O)[C@H](CO)NC(=O)[C@@H](NC(=O)[C@H](Cc1ccccc1)NC(=O)[C@@H](NC(=O)CNC(=O)[C@H](CCC(N)=O)NC(=O)C1(NC(=O)[C@@H](N)Cc2c[nH]cn2)CCC1)[C@@H](C)O)[C@@H](C)O)C(=O)N[C@@H](CO)C(=O)N[C@@H](CCCCN)C(=O)N[C@@H](Cc1ccc(O)cc1)C(=O)N[C@@H](CC(C)C)C(=O)N[C@@H](CCC(=O)O)C(=O)N[C@@H](CO)C(=O)N[C@@H](CCCNC(=N)N)C(=O)N[C@@H](CCCNC(=N)N)C(=O)N[C@@H](C)C(=O)N[C@@H](CCCNC(=N)N)C(=O)N[C@@H](CCC(=O)O)C(=O)N[C@@H](Cc1ccccc1)C(=O)N[C@H](C(=O)N[C@@H](CCC(N)=O)C(=O)N[C@@H](Cc1c[nH]c2ccccc12)C(=O)N[C@@H](CC(C)C)C(=O)N[C@H](C(=O)N[C@@H](CCCCNC(=O)CC[C@H](NC(=O)CC[C@H](NC(=O)COCCOCCNC(=O)COCCOCCNC(=O)CC[C@H](NC(=O)CC[C@H](NC(=O)CCCCCCCCCCCCCCCCC(=O)O)C(=O)O)C(=O)O)C(=O)O)C(=O)O)C(=O)N[C@H](C(N)=O)[C@@H](C)O)[C@@H](C)CC)C(C)C, also called Chem. 26; Chem 26) | 2 | 42 | 10.1 | 0.4 |

Now those with a lower IC50 (human glucagon receptor [3]), led by results:

| GLP-1R EC50 (pM) [Assay (I)(a)], CRE luciferase reporter, BHK cells (human GLP-1 receptor [1]) [pM] | GlucagonR EC50 (pM), [Assay (I)(b)], CRE luciferase reporter, BHK cells (human glucagon receptor [2]) [pM] | IC50 (human glucagon receptor [3]) [nM] | IC50 (human GLP-1 receptor [4]) [nM] | Binder |
| --- | --- | --- | --- | --- |
| 4 | 45 | 4.3 | 0.1 | H[Ac4c]QGTFTSDLSRYLESRRAREFVQWLIK([γGlu-γGlu-AEEA-AEEA-γGlu-γGlu-C18 diacid])T-NH2 (N-terminus assumed; SMILES CC[C@H](C)[C@H](NC(=O)[C@H](CC(C)C)NC(=O)[C@H](Cc1c[nH]c2ccccc12)NC(=O)[C@H](CCC(N)=O)NC(=O)[C@@H](NC(=O)[C@H](Cc1ccccc1)NC(=O)[C@H](CCC(=O)O)NC(=O)[C@H](CCCNC(=N)N)NC(=O)[C@H](C)NC(=O)[C@H](CCCNC(=N)N)NC(=O)[C@H](CCCNC(=N)N)NC(=O)[C@H](CO)NC(=O)[C@H](CCC(=O)O)NC(=O)[C@H](CC(C)C)NC(=O)[C@H](Cc1ccc(O)cc1)NC(=O)[C@H](CCCNC(=N)N)NC(=O)[C@H](CO)NC(=O)[C@H](CC(C)C)NC(=O)[C@H](CC(=O)O)NC(=O)[C@H](CO)NC(=O)[C@@H](NC(=O)[C@H](Cc1ccccc1)NC(=O)[C@@H](NC(=O)CNC(=O)[C@H](CCC(N)=O)NC(=O)C1(NC(=O)[C@@H](N)Cc2c[nH]cn2)CCC1)[C@@H](C)O)[C@@H](C)O)C(C)C)C(=O)N[C@@H](CCCCNC(=O)CC[C@H](NC(=O)CC[C@H](NC(=O)COCCOCCNC(=O)COCCOCCNC(=O)CC[C@H](NC(=O)CC[C@H](NC(=O)CCCCCCCCCCCCCCCCC(=O)O)C(=O)O)C(=O)O)C(=O)O)C(=O)O)C(=O)N[C@H](C(N)=O)[C@@H](C)O, also called Chem. 17; Chem 17) |
| 2 | 9 | 6.4 | 0.1 | H[Aib]QGTFTSDLSRYLDARRARDFVQWLIK([γGlu-γGlu-γGlu-C18 diacid])T-NH2 (also called Chem. 14; Chem 14) |
| 4 | 23 | 1.8 | 0.1 | H[Ac4c]QGTFTSDLSKYLESRRAREFVQWLIK([γGlu-γGlu-AEEA-AEEA-γGlu-γGlu-C18 diacid])T-NH2 (also called Chem. 13; Chem 13) |

Source: patent US20170101454A1 (Novo Nordisk, published 2017)
